T1: FimI-FimAtHis (the two subunits of the ternary FimCHisIA complex) (E. coli W3110 | E. coli, UniProt P39264 20-179; P04128 37-182)
T1 construct: also called FimI-FimA part of FimCHisIA
T1 sequence (looked up) 1: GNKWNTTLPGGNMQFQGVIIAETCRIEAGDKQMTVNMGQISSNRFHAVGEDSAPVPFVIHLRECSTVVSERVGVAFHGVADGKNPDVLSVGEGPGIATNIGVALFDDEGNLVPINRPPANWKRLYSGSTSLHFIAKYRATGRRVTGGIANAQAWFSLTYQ
T1 sequence (looked up) 2: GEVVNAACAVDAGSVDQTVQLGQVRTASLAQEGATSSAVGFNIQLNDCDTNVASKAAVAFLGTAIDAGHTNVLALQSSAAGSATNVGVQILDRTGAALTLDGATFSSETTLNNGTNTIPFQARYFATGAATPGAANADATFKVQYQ

T2: FimFt (E. coli)
T2 chain: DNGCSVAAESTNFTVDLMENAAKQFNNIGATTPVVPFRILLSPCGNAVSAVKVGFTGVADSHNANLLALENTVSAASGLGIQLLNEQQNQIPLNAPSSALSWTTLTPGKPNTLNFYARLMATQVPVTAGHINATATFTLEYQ

T3: FimF-FimGt (the two subunits of the ternary FimCHisFG complex) (E. coli, UniProt P08189 21-176; P08190 24-167)
T3 chain 1: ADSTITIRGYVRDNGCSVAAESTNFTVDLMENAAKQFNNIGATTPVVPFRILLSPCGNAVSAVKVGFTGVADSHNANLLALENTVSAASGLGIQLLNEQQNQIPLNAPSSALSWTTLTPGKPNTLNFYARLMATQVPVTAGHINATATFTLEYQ
T3 chain 2: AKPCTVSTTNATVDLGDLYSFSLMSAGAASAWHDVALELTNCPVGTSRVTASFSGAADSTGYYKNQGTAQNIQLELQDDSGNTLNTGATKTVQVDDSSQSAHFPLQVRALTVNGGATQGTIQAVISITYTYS

B1: FimC (natural protein, E. coli, UniProt P31697 37-241, looked up)
chain: GVALGATRVIYPAGQKQEQLAVTNNDENSTYLIQSWVENADGVKDGRFIVTPPLFAMKGKKENTLRILDATNNQLPQDRESLFWMNVKAIPSMDKSKLTENTLQLAIISRIKLYYRPAKLALPPDQAAEKLRFRRSANSLTLINPTPYYLTVTELNAGTRVLENALVPPMGESTVKLPSDAGSNITYRTINDYGALTPKMTGVME
notes: also called periplasmic chaperone FimC; untagged FimC; source: in FimCF and FimCG co-expressed in the periplasm of E. coli HM125
B2: FimCHis (FimC with C-terminal hexahistidine tag) (natural protein, E. coli, UniProt P31697 37-241, looked up)
chain: B1 chain
B3: FimI (natural protein, E. coli W3110, UniProt P39264 20-179, looked up)
chain: T1 sequence (looked up) 1
notes: also called assembly terminator subunit FimI
B4: FimAtHis (wild-type FimA missing residues 1-13 but with an N-terminal hexahistidine tag) (domain or fragment, E. coli, UniProt P04128 37-182, looked up)
chain: T1 sequence (looked up) 2
notes: also called FimAt (in the FimCHisIA structure)
B5: FimA (natural protein, E. coli, UniProt P04128 24-182, looked up)
chain: AATTVNGGTVHFKGEVVNAACAVDAGSVDQTVQLGQVRTASLAQEGATSSAVGFNIQLNDCDTNVASKAAVAFLGTAIDAGHTNVLALQSSAAGSATNVGVQILDRTGAALTLDGATFSSETTLNNGTNTIPFQARYFATGAATPGAANADATFKVQYQ
notes: also called main structural pilus subunit FimA; FimA wild-type
B6: FimAt (residues 18-159 of FimA) (domain or fragment, E. coli, UniProt P04128 41-182, looked up)
chain: NAACAVDAGSVDQTVQLGQVRTASLAQEGATSSAVGFNIQLNDCDTNVASKAAVAFLGTAIDAGHTNVLALQSSAAGSATNVGVQILDRTGAALTLDGATFSSETTLNNGTNTIPFQARYFATGAATPGAANADATFKVQYQ

Tests used:
FimA [1] = molecular target: B5; assay: cell-based or functional assay
FimI [2] = molecular target: B3; assay: cell-based or functional assay
FimA [3] = molecular target: B5; assay: chaperone exchange kinetics followed by analytical cation exchange chromatography; 4 μM complex incubated with a 9-fold molar excess (36 μM) of the differently tagged FimC (untagged FimC against FimCHis complexes, FimCHis against FimCA and FimCAA); 20 mM MES-NaOH pH 6.0, 37 °C; single-exponential fit; settings: both partners purified
[4] = molecular target: T1, FimI-FimAtHis (the two subunits of the …); assay: as above; settings: both partners purified
FimFt = molecular target: T2, FimFt; assay: as above; settings: both partners purified
[5] = molecular target: T3, FimF-FimGt (the two subunits of the …); assay: as above; settings: both partners purified
FimI [6] = molecular target: B3; assay: as above; settings: both partners purified
[7] = molecular target: B2; assay: crystal structure; settings: both partners purified
FimC = molecular target: B1; assay: refolding of the subunit with the chaperone and co-purification (cation exchange chromatography, SEC); denatured, disulfide-intact subunit diluted into buffer with an excess of FimC or FimCHis; complex purified by cation exchange and (not for FimCHisI) Superdex 75; FimCA eluted as a 1:1 complex; identity by ESI-MS; settings: both partners purified
FimI [8] = molecular target: B3; assay: crystal structure; settings: both partners purified
[9] = molecular target: B2; assay: crystal structure; FimCHis-FimI-FimAtHis complex, 2.8 Å, space group P6(1), two complexes in the asymmetric unit, crystals at 293 K from 0.8 M sodium formate, 100 mM Tris/acetic acid pH 8.5, 16% PEG 4000; settings: both partners purified
FimA [10] = molecular target: B5; assay: reconstitution by donor strand exchange and co-purification (cation exchange chromatography, SEC); 2 μM FimCA with 10 μM FimCAt at pH 7.0 and 37 °C overnight; FimCAA purified on Resource S and Superdex 75; identity by ESI-MS; settings: both partners purified

B1
FimC-catalyzed folding of oxidized, unfolded FimA, rate constant by stopped-flow tryptophan fluorescence (pseudo-first-order fit, pH 8.0) (FimA [1]): 43000 M^−1 s^−1 | FimC-catalyzed folding of oxidized, unfolded FimI, rate constant by stopped-flow tryptophan fluorescence (pseudo-first-order fit, pH 8.0) (FimI [2]): 73000 M^−1 s^−1 | dissociation half-life (FimA [3]): 26 ± 1 s

B2
dissociation half-life [4]: 3.85 ± 0.43 h | dissociation half-life (FimFt): 1.58 ± 0.14 h | dissociation half-life [5]: 1.41 ± 0.12 h | dissociation half-life (FimI [6]): 1.05 ± 0.095 min

B3
binding result [7]: binds | binding result (FimC): binds

B4
binding result (FimI [8]): binds | binding result [9]: binds

B5
binding result (FimC): binds

B6
binding result (FimC): binds | binding result (FimA [10]): binds
